The nanobody polyreactivity screen of Harvey et al. (2022)

Assay: yeast display, Sf9 membrane polyspecificity reagent, FACS + sequencing; frameworks hold sequencing errors
In short: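 A synthetic nanobody library was expressed on Saccharomyces cerevisiae BJ5465 by galactose induction for 36–48 hours. The library was stained for 1 hour at 4 °C with 10% biotinylated, detergent-solubilized Sf9 membrane reagent and enriched with streptavidin microbeads before FACS. Low and high (top ~1%) gates were set on anti-HA fluorescence for expression and streptavidin fluorescence for reagent binding, and each polyreactivity label reflects the gate of origin.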

Sequence	polyreactivity (PSR sort gate)
QVQLVESGGGLVQAGGSLRLSCAASGSTFVYYAMGWYIQAPGKEREFVAGISRSGGSTYYADSVKGRFTISRDNAMNTVYLQMNSLKPEDTAVYSCNASGGLPKYGYWGQGTQVTVSS	high polyreactivity
QVQLVESGGGLVQAGGSLRLSCAASGSTFVYYDMGWYRQAPGKERELVADISDSGGSTNYADSVKGRFTISRDNAKNTVYLQMNSLKPEDTAVYYCAADSADPTEYDYWGQGTQVTVSS	low polyreactivity
QVQLVESGGGLVQAGGSLRLSCAASGSTFVYYTMGWYRPAPGKERELVAAITSGTSTNYADSVKGRFTISRDNAKNTVYLQMNSLKPEDTAVYDCNAQRRGTYYWGQGTQVTVSS	high polyreactivity
QVQLVESGGGLVQAGGSLRLSCAASGSTFWANAMGWYRQAPGKERELVAGITWNAGSTYYADSVKGRFTISRDYAKNNVYFQMNSLNPEDTAVDYCAAYYHFQGWGPGYNSWGQGTQVTVSS	low polyreactivity
QVQLVESGGGLVQAGGSLRLSCAASGSTFWDYAMGWYRQAPGKERELVAAISSGGSTNYADSVKGRFTISRDNAKNTVYLQMNSLKPEDTAVYYCAVGYGGYYYWGQGTQVTVSS	high polyreactivity
QVQLVESGGGLVQAGGSLRLSCAASGSTFWDYAMGWYRQAPGKERELVAAISTSGGSTYYADSVKGRFTISRDNAKNTVYLQMNSLKPEDTAVYYCAAGRVRRRVWYNYWGQGTQVTVSS	high polyreactivity
QVQLVESGGGLVQAGGSLRLSCAASGSTFWDYAMGWYRQSPGKERELVAGITYSGTSTYYADSVKARFTISRDHAKNTVYLQMNSLKPEDTAVYYCAAESQAVGWWTPGYDYWGQGTQVTVSS	low polyreactivity
QVQLVESGGGLVQAGGSLRLSCAASGSTFWFNAMGGSRQAPGKERELVAAIPSRGGYTYYADSVKGRFTISRDHAKNTVYLQMNSLKPEDTAVYYCAADYRYSSRKVFHFDYWGQGTQVTVSS	low polyreactivity
QVQLVESGGGLVQAGGSLRLSCAASGSTFWFNDMGWYRQAPGKEREFVAAISSIGGSTYYADSVKGRFTISRDNAKNNVNLQMNSLKPEDTAVYYCAVEVVRVYRYDYWGQGTQVTVSS	low polyreactivity
QVQLVESGGGLVQAGGSLRLSCAASGSTFWFYAMGWYRQAPGTERELVAVISNSGSTYYADSVKGRFTISRDNAKNTVYLQMNSLKPEDTEVYYCNKDGGGDSYWYDYWGQGTQVTVSS	low polyreactivity
QVQLVESGGGLVQAGGSLRLSCAASGSTFWGNAMGWYRQAPGKERELVAAIDWSGGRTYYADSVKGRFTISRDNAKNTVYLQMNSLKPEDTAVYYCATRAWRGYGPYDYWGQGTQVTVSS	high polyreactivity
QVQLVESGGGLVQAGGSLRLSCAASGSTFWGNAMGWYRQAPGKERELVAAISNGGSTNYADSVKGRFTISRDNAKNTVYLQMNSLKPEDTAVYYCAADGHTSNGVSLHGYWGQGTQVTVSS	low polyreactivity
QVQLVESGGGLVQAGGSLRLSCAASGSTFWGNAMGWYRQAPGKERELVAAISWIGGGTYYADSVKGRFTISRDNAKNTVYLQMNSLKPEDTAVYYCAAKIFIRVHYYSYRMYYWGQGTQVTVSS	low polyreactivity
QVQLVESGGGLVQAGGSLRLSCAASGSTFWIYAMGWYIQAPGTERELVAAITLRSGSTYYADSVKGRFTISRDNAKNTVYLQMISLKPEDTAVYYCATDSWGVDRPNYNYWGQGTQVTVSS	low polyreactivity
QVQLVESGGGLVQAGGSLRLSCAASGSTFWKYVIGWYRQEPGKERELVAAITSRGGSTYADSVKGRFTISRDNAKNTVYLQMNSLKPEDTAVYYCAATKFWYYGYDYWGQGTQVTVSS	low polyreactivity
QVQLVESGGGLVQAGGSLRLSCAASGSTFWLYAMGWYRQAPGKERELVASISSRGGSTYYADSVKGRFTISRDNAKNTVYLQMNSLKPEDTAVYYCAAKDIRYDDDYWGQGTQVTVSS	low polyreactivity
QVQLVESGGGLVQAGGSLRLSCAASGSTFWTYTMGWYRQAPGKERELVAVISSTGGDTYYADSVKGRFTISRDNAKNTVYLQMNSLKPEDTAVYYCAARIRRWYAGYGGYYWGQGTQVTVSS	high polyreactivity
QVQLVESGGGLVQAGGSLRLSCAASGSTFWVYAMGWYRQAPGKERELVASITFSGSSTYYADSVKGRFTISRDNAKNTVYLQMNSLKPEDTAVYYCAAGEGGDRSRGYLSQYGYWGQGTQVTVSS	low polyreactivity
QVQLVESGGGLVQAGGSLRLSCAASGSTFWYAMGWYRQAPGKERELVAAITARGGRTYYADSVKGRFTISRDNAKHTVYLQLISLKPEDTAVYYCARLSYAGGQWIIGKYDYWGQGTQVTVSS	high polyreactivity
QVQLVESGGGLVQAGGSLRLSCAASGSTFWYYALGWYRQAPGKERELVAAIRWSDGSTYYADSVKGRFTSSRDNAKNTVYLQMNSLKPEDTAVYYCEYYYWGQGTQVTVSS	low polyreactivity
QVQLVESGGGLVQAGGSLRLSCAASGSTFWYYAMGWSRQAPGKERELVADITYSGVSTYYADSVKGRFTISRDNAKNTVYLQMNSLKPEDTAVYYCNAVWGSVKGYSGYYYWGPGTQVTVSS	low polyreactivity
QVQLVESGGGLVQAGGSLRLSCAASGSTFWYYAMGWYRQAPGKEREFVAAITTSAGRTYDADSVKGRFTISRDHAKNTVYLQMNSLKPEDTAVYYCAAEPRQYWEYNYWGQGTQVTVSS	high polyreactivity

Sequence	polyreactivity (PSR sort gate)
QVQLVESGGGLVQAGGSLRLSCAASGSTFWYYAMGWYRQAPGKERELVAGITQSGGSTYYADSVKGRFTISRDNEKNTVYLQMNRLKPEDTAVYYCAKDGRVSGDFDYWGQGTQVTVSS	low polyreactivity
QVQLVESGGGLVQAGGSLRLSCAASGSTFWYYAMGWYRQAPGKEREMVATIRWRGGSTYYADSVKGRFTISRDNAKNTLYLQMNSLKPEDTAVYYCAADTWAYVGYYYGFDYWGQGTQVTVSS	high polyreactivity
QVQLVESGGGLVQAGGSLRLSCAASGSTFWYYDMGWYRQAPGKERELVAAITSGGRTNYADSVKGRFTISRDNAKNTVYLQMNSLKPEDTAVYYCARGPLSHTALYWRGRYNYWGQGTQVTVSS	high polyreactivity
QVQLVESGGGLVQAGGSLRLSCAASGSTFWYYTMGWYRPAPGKERELVAGITSGGSTYYADSVKGRFTISRDYANNTVYLQMNSLKPEDTAVYYCTFYWYNYWGQGTQVTVSS	high polyreactivity
QVQLVESGGGLVQAGGSLRLSCAASGSTFYANAKGWYRQAPGKERELVAAISSTGGSTYYADSVKGRFTISRDNAKNTVYLQMNSLKPEDTAVYYCAARARWIVAYDLGYWGQGTQVTVSS	low polyreactivity
QVQLVESGGGLVQAGGSLRLSCAASGSTFYANGMGRYRQAPGKERELDAAISWSGGSTYYADSVKGRFTISRDNAKNTVYLQMNSLKPEDTAVYYCAAAYRSFINGRWYDYWGQGTQVTVSS	low polyreactivity
QVQLVESGGGLVQAGGSLRLSCAASGSTFYAYAMGSYRQSPGKERELVAVITSGGTTKYADSVKGRFTISRDNAKNTVYLQLNSLKPEDTAVYYCNVAGRDYAVRWGSFVFWGQGTQVTVSS	low polyreactivity
QVQLVESGGGLVQAGGSLRLSCAASGSTFYAYTMGWYRKAPGKERELVAGISRRGGTTYYADSVKGRFTISRDNAKNTVYLQMNSLKPEDTAVYYCAADKTKPQASEGYYAYYYWGQGTQVTVSS	low polyreactivity
QVQLVESGGGLVQAGGSLRLSCAASGSTFYDYAMGWYRQAPGKERELVAAMSSSGARTYYADSVKGRFTISRDNAKNSVYLQMNSLKPEDTAVYYCGAKPHTRTTCPSGYWGQATQVTVSS	high polyreactivity
QVQLVESGGGLVQAGGSLRLSCAASGSTFYDYAMGWYRQAPGKERELVAGIRNGGSTNYADSVKGRFTISRDNAKNTVYLQMNSLIPEDTAVYYCAAPRWDGFYSYYRVVWGIFDYWGQGTQVTVSS	low polyreactivity
QVQLVESGGGLVQAGGSLRLSCAASGSTFYDYAMGWYRQAPGKERELVASIDSGDSTNYADSVKGRFTISRDNAKNTVYLQMNSLKPEDTAVYYCAARVYSVADYYYWGQGTQVTVSS	low polyreactivity
QVQLVESGGGLVQAGGSLRLSCAASGSTFYDYVMGWYRQAPGKERELFAAISRTGASTYYADSVKGRFTISRDNAKNTVYLQMNSLKPVDTAVYYCAADSDTVRYYYWGQGTQVTVSS	high polyreactivity
QVQLVESGGGLVQAGGSLRLSCAASGSTFYENAMVWSRQAPGKDRELVAAISRSTGRTYYADSVKGRFTISRDNAKNTVYLQMNSLKPEDTAVYYCAARVYGRMYFWGQGTQVTVSS	high polyreactivity
QVQLVESGGGLVQAGGSLRLSCAASGSTFYFYAMGWYRQAPGKERELVAAITYSGDRTRYADSVKGRFTISRDNAKNTVYLQMNSLKPEDTAVYYCAARYVGARNAYRMGYWGQGTQVTVSS	high polyreactivity
QVQLVESGGGLVQAGGSLRLSCAASGSTFYFYARGWYRQAPGKERELVAVISSGGTTNYADSVKGRFTISRDNAKNTVYLQMNSLKPEDTAVYYCNAEPPRGYTVSSGGEMDYWGQGTQVTVSS	low polyreactivity
QVQLVESGGGLVQAGGSLRLSCAASGSTFYGNAMGWYRQATGKERELVAAIRWRGGRTYYADSVKGRFTISRDNAKNTVYLQMNSLKPEDTAVYYCNALPGVSHTQYDRVGYWGQGTQVTVSS	high polyreactivity
QVQLVESGGGLVQAGGSLRLSCAASGSTFYGNMGWYRQAPGKERALVAAITYRGTNTYYADSVKGRFTISRDNAKNTVYLQMNSLKPEDTAVYYCAAEYDVYQGRGRYYGYDYWGQGTQVTVSS	high polyreactivity
QVQLVESGGGLVQAGGSLRLSCAASGSTFYGYAMGGNRQAPGKERELVAAMTWGGASTYYADSVKGRFTIARDNAKNTVYLQMNSLKPEDTAVYYCATVGWGYQPYPFGMDYWGQGTQVTVSS	low polyreactivity
QVQLVESGGGLVQAGGSLRLSCAASGSTFYGYAMGWNRQAPGKERELVADIDSIAGSTYYADSVKGRFTISRDNAKNTVYLQMNSLKPEDTAVYYCAARRFDTALVLYDYWGQGTQVTVSS	low polyreactivity
QVQLVESGGGLVQAGGSLRLSCAASGSTFYGYAMGWYRQAPGKERELVAAIRSGGRTYYADSVKGRFTISRDNAKNTVYLQMNSLKPEDTAVYYCNARSFNYRTFGGKMGYWGQGTQVTVSS	high polyreactivity
QVQLVESGGGLVQAGGSLRLSCAASGSTFYGYGLGWYRPAPGKERELFAAITGSGDTTYYADSVKGRFTISRDNAKNTVYLQMNSLKPEDTAVYYCNARWHAEYDYWGQGTQVTVSS	low polyreactivity
